Laboratory results from patent US20150307561.

Key:
[1] = tested on: TALE tetramer library ATTG (repeats 5-8 varied) (synthetic (Xanthomonas TALE scaffold)); assay: ELISA; conditions: mean of 131 library clones, SE 0.05
[2] = tested on: TALEN R (R557), canonical RVDs (synthetic (Xanthomonas TALE scaffold)); assay: cell_activity; conditions: cold shock
[3] = tested on: TALEN R*, non-canonical RVDs (synthetic (Xanthomonas TALE scaffold)); assay: cell_activity; conditions: cold shock
[4] = tested on: TALE tetramer library CCTG (repeats 5-8 varied) (synthetic (Xanthomonas TALE scaffold)); assay: ELISA; conditions: mean of 90 library clones, SE 0.03
[5] = tested on: TALEN R2+17 (synthetic (Xanthomonas TALE scaffold)); assay: cell_activity; conditions: K562, partner L+17 or L*+17, cold shock
[6] = tested on: TALEN L*+17 (synthetic (Xanthomonas TALE scaffold)); assay: cell_activity; conditions: for off-target activity reduction (fold reduction vs L+17): L*+17 homodimer at +17_OT1
[7] = tested on: TALEN L+17 (synthetic (Xanthomonas TALE scaffold)); assay: cell_activity; conditions: K562, partner R2+17, cold shock
[8] = tested on: TALEN R 102102 (synthetic (Xanthomonas TALE scaffold)); assay: cell_activity; conditions: K562, partner TALEN L
[9] = tested on: TALEN R 102105 (synthetic (Xanthomonas TALE scaffold)); assay: cell_activity; conditions: K562, partner TALEN L
[10] = tested on: TALEN R 102109 G34R in repeat 8 (synthetic (Xanthomonas TALE scaffold)); assay: cell_activity; conditions: K562, partner TALEN L
[11] = tested on: TALEN R 102112 (synthetic (Xanthomonas TALE scaffold)); assay: cell_activity; conditions: K562, partner TALEN L
[12] = tested on: TALEN R 102115 (synthetic (Xanthomonas TALE scaffold)); assay: cell_activity; conditions: K562, partner TALEN L
[13] = tested on: TALEN R 102123 (synthetic (Xanthomonas TALE scaffold)); assay: cell_activity; conditions: K562, partner TALEN L
[14] = tested on: TALEN R 102124 (synthetic (Xanthomonas TALE scaffold)); assay: cell_activity; conditions: K562, partner TALEN L
[15] = tested on: TALEN R 102128 (synthetic (Xanthomonas TALE scaffold)); assay: cell_activity; conditions: K562, partner TALEN L
[16] = tested on: TALEN R 102129 (synthetic (Xanthomonas TALE scaffold)); assay: cell_activity; conditions: K562, partner TALEN L
[17] = tested on: TALEN R 102146 (synthetic (Xanthomonas TALE scaffold)); assay: cell_activity; conditions: K562, partner TALEN L
[18] = tested on: TALEN R 102148 (synthetic (Xanthomonas TALE scaffold)); assay: cell_activity; conditions: K562, partner TALEN L
[19] = tested on: TALEN R 102150 (synthetic (Xanthomonas TALE scaffold)); assay: cell_activity; conditions: K562, partner TALEN L
[20] = tested on: TALEN R 102151 (synthetic (Xanthomonas TALE scaffold)); assay: cell_activity; conditions: K562, partner TALEN L
[21] = tested on: TALEN R 102156 (synthetic (Xanthomonas TALE scaffold)); assay: cell_activity; conditions: K562, partner TALEN L
[22] = tested on: TALEN R 102158 (synthetic (Xanthomonas TALE scaffold)); assay: cell_activity; conditions: K562, partner TALEN L
[23] = tested on: TALEN R 102159 (synthetic (Xanthomonas TALE scaffold)); assay: cell_activity; conditions: K562, partner TALEN L
[24] = tested on: TALEN R 102161 (synthetic (Xanthomonas TALE scaffold)); assay: cell_activity; conditions: K562, partner TALEN L
[25] = tested on: TALEN R 102162 (synthetic (Xanthomonas TALE scaffold)); assay: cell_activity; conditions: K562, partner TALEN L
[26] = tested on: TALEN R 102177 (synthetic (Xanthomonas TALE scaffold)); assay: cell_activity; conditions: K562, partner TALEN L
[27] = tested on: TALEN L (L538), canonical RVDs (synthetic (Xanthomonas TALE scaffold)); assay: cell_activity; conditions: OT1, L/R, cold shock
[28] = tested on: TALEN L*, non-canonical RVDs (synthetic (Xanthomonas TALE scaffold)); assay: cell_activity; conditions: OT1, L*/R*, cold shock; 1.967 for L*/R

Work on “CATAGTCCCCTTGACATTGTCCTCGGTGTAGTTTTCACAGTCAGTCCACACGTC (double strand) [ATTG target]” yielded a binding signal (fraction of canonical control) [1] of 0.37.
With “GTTACCAGATATCCTTTCTGGAAGAAA (double strand) [OT1 right half]” the activity ([2]; OT1, L/R) was 3.17 % indels and the activity ([3]; OT1, L*/R*, 0.663 for L/R*) was 0.32 % indels.
“CATAGTCCCCTTGACCCTGTCCTCGGTGTAGTTTTCACAGTCAGTCCACACGTC (double strand) [CCTG target]” showed a binding signal (fraction of canonical control) [4] of 0.2.
“CCATACAGTCAGTATCAAT (double strand) [CCR5 +17 target, right half]” was tested, and the activity [5] was > 85 % indels.
“CTTCATTACACCTGCAGCTCTCA (double strand) [CCR5 +17 target, left half]” was tested, and the activity ([6]; K562, partner R2+17, cold shock) was > 85 % indels and the activity [7] was > 85 % indels.
With “TCTTCCAGAATTGATACT (double strand) [TALEN R binding site (CCR5)]” the activity ([2]; K562, L/R) was 50.6 % indels, the activity [8] was 27.8 % indels and the activity [9] was 24.9 % indels. For the same sequence, the activity [10] was 29.7 % indels, the activity [11] was 6.1 % indels and the activity [12] was 27.7 % indels. The activity [13] was 32.8 % indels, the activity [14] was 29.1 % indels and the activity [15] was 7.6 % indels. The activity [16] was 4.7 % indels, the activity [17] was 31.4 % indels and the activity [18] was 33.7 % indels. The activity [19] was 31.2 % indels, the activity [20] was 23.6 % indels and the activity [21] was 25.4 % indels. The activity [22] was 23.4 % indels, the activity [23] was 24.9 % indels and the activity [24] was 9.3 % indels. The activity [25] was 23.1 % indels, the activity [26] was 22.9 % indels and the activity ([3]; K562, L*/R*, 55.53 with L) was 65.2 % indels.
Work on “TTTTATTACACTTCCAGATCTTTTATT (double strand) [OT1 left half]” yielded an activity [27] of 3.17 % indels and an activity [28] of 0.32 % indels.
In the case of “TTTACCCTGCAGGTGTGATGAAT (double strand) [+17_OT1 right half]”, the off-target activity reduction (fold reduction vs L+17) [6] was > 100.
“TTTAGATACACCTACCTATAAAT (double strand) [+17_OT1 left half]” was tested, and the off-target activity reduction (fold reduction vs L+17) [6] was > 100.
